In patent publication EP4793290A2:

Molecular target: mouse PD-L1 (mouse) (UniProt Q9EP73)
Test: flow cytometry on DOdKO-mPD-L1/mCD80 cells pretreated with 10 µg/ml TKMG48

Sequence of mouse PD-L1 (mouse) (Q9EP73 19-290 limits assumed): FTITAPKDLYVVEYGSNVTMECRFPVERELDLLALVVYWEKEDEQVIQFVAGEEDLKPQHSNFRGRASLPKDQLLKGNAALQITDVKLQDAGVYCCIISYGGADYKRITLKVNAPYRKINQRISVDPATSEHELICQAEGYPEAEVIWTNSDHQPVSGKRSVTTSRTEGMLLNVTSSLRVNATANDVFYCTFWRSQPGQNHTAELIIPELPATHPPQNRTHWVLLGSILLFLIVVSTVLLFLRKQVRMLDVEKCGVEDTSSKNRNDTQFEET
Sequence of soluble mouse PD-1 extracellular region (PD-1-EC) protein (Q02242 other isoform, or with tags, fused parts or gaps): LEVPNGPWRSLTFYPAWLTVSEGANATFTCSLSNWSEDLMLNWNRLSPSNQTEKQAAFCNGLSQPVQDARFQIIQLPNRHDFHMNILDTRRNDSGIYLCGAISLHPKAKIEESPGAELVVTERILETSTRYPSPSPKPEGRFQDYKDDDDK

amount of binding (mean fluorescence intensity) relative to control IgG pretreatment: 10.1 times
Substance: soluble mouse PD-1 extracellular region (PD-1-EC) protein (from UniProt Q02242 25-167) (receptor)
